According to patent US20090291083A1, “BARB4 TARGET, ANTIBODY DESIGNATED BARB4, BARB4 RELATED ANTIBODIES, AND METHODS OF MAKING AND USING SAME” (PATRYS LIMITED, priority 2008, published 2009):

What was measured:
Experiment in all cases: MTT cell proliferation assay (Table 3)
Assay type in all cases: cell-based, human
A549 = tested on: A549
Experimental: (§1) BARB4 was also evaluated for inhibition of proliferation of other cancer cell lines, including BxPC-3, COLO 205, H460, MDA-MB-231 and MIAPaCa-2 cells, as well as HT-29, HCT-116, BxPC-3, PANC-1, A549, PC-3 and HCT116 cells. In brief, various human cancer cell lines obtained from the American Type Culture Collection (ATCC) were established using standard in vitro culture methods and ATCC recommended media in 175 cm2 BD tissue culture treated flasks. In particular, MDAMB-231 cultures were incubated in a humidified 37° C., 100% air incubator, and BxPC-3, COLO 205, H460 and MIAPaCa-2 cultures were incubated in a humidified 37° C., 5% CO2, 95% air incubator. Cultures were sub-cultivated regularly to maintain log phase growth. All cell lines were brought up from cryopreservation using the original recommended ATCC media type and supplements. Cell line specific seeding densities were based on historical data from MIR Preclinical Services for growth over a 72 hr period.
(§2) The anti-proliferative activity of BARB4 and cisplatin was evaluated using the MTT cell proliferation assay (ATCC catalog #30-1010K). The assay is based on the reduction of yellow tetrazolium MTT (3-(4,5-dimethylthiazolyl-2)-2,5-diphenyltetrazolium bromide) by metabolically active cells forming purple formazan crystals. The purple formazan is solubilzed with detergent and quantified spectrophotometrically at 570 nm (MTT Cell Proliferation Assay, ATCC 30-1010K; Van de Loosdrecht, et al. J. Immunol. Methods 174:311 (1994): Ferrari, et al. J. Immunol. Methods 131:165 (1990); Gerlier, D., and N. Thomasset. J. Immunol. Methods 94:57 (1986); Alley, et al. Cancer Res. 48:589 (1988); and Mosmann, T. J. Immunol. Methods 65:55 (1983)). The MTT Cell Proliferation Assay Kit from ATCC contains ready to use MTT and detergent solutions.
(§3) Cells in the log phase of growth were seeded into 96-well culture plates in 0.1 mL of complete medium in all wells except column 12 which was reserved for media-only control (blank) and allowed to attach overnight at 37° C. Compounds were diluted in complete culture media and added to each well in a volume of […] for a final 1:2 dilution from the 2× dilution reservoir concentration. At 24 and 48 hr post-treatment, 100 μl of media was removed and 0.01 mL of MTT reagent was added to each well. The plates were returned to the incubator for four hours. Detergent reagent (0.1 mL) was then added and the plates incubated overnight at 37° C. in the dark to solubilize the formazan crystals. The absorbance at 570 nm was measured with a SpectraMAX® Plus plate reader (Molecular Devices Corporation) at 24 and 48 hr post-detergent addition. Absorbance values were converted to percent of control and then plotted against test agent concentrations for IC50 calculations using SoftMax® Pro v. 5.2 (Molecular Devices Corporation). Plots of percent of control vs. compound (BARB4 or cisplatin) concentration were analyzed using the 4 parameter equation to obtain IC50 values and other parameters that describe the sigmoidal curve along with an R2 value.
(§4) Using the same MTT assay as described for the BxPC-3, COLO 205, H460, MDA-MB-231 and MIAPaCa-2 cells, proliferation of HT-29, HCT-116, BxPC-3, PANC-1, A549, PC-3 and HCT116 cells was evaluated and IC50 (μg/ml) was calculated at 24, 48 and 72 hours. The cell culture protocol for passaging adherent cells used is substantially as described above for the BxPC-3, COLO 205, H460, MDA-MB-231, and MIAPaCa-2 cells. The following were the cell line propagation conditions:
(§5) Atmosphere. 5% CO2, humidified Media Supplements Used: * FBS—Fetal Bovine Serum (Gibco 10082-147; lot #1354986), * PSG—Penicillin, Streptomycin, L-Glutamine Solution (CellGro 30-009-CI), * 0.1M Na Pyruvate (CellGro 25-000-CI), * 1.0M HEPES (CellGro 25-060-CI), AND * 45% Glucose (CellGro 25-037-CI). Seeding Densities* for IC50 Assays: A549 2.5×10^3; PC-3 6.0×10^3; HT-29 12×10^3; HCT-116 8.0×10^3; BxPC-3 12×10^3; and PANC-1 6.0×10^3 cells.

BxPC-3 = tested on: BxPC-3
Experimental: as §1, §2, §3, §4, §5

HT-29 = tested on: HT-29
Experimental: as §1, §2, §3, §4, §5

HCT-116 = tested on: HCT-116
Experimental: as §1, §2, §3, §4, §5

PANC-1 = tested on: PANC-1
Experimental: as §1, §2, §3, §4, §5

PC-3 = tested on: PC-3
Experimental: as §1, §2, §3, §4, §5

B1: BARB4: human IgG antibody produced by hybridoma DSMZ Deposit No. DSM ACC2876; heavy chain SEQ ID NOs:1, 3, 5, 7, light chain SEQ ID NO:9 (antibody, V domains shown)
VH: QVQLVESGGGVVQPGRSLRLSCAASGFRFTTHGMHWVRQAPGKGLEWVAVISYNGRNKYYADYVNGRFTISRDDSRDTVFLQMNSLRPEDTAMYYCAKVRGDGYGDYGYFDYWGHGTLVSVSS
VL: QSALTQPRSVSGSPGQSVTISCTGTYNYVSWYQQHPGKAPKLMIFDVSRRSSGVPDRFSGSKSGNTASLTISGLQAEDEADYYCCSYGGTYLYVFGTGTTVTVLGQ
A549; 24 hours
  IC50 24 hours: 98.9 µg/mL
A549; 48 hours
  IC50 48 hours: 111.2 µg/mL
A549; 72 hours
  IC50 72 hours: 122.2 µg/mL
BxPC-3; 24 hours
  IC50 24 hours: 88.9 µg/mL
BxPC-3; 48 hours
  IC50 48 hours: 362.8 µg/mL
BxPC-3; 72 hours
  IC50 72 hours: 511.4 µg/mL
HT-29; 24 hours
  IC50 24 hours: 399.5 µg/mL
HT-29; 48 hours
  IC50 48 hours: 300.1 µg/mL
HT-29; 72 hours
  IC50 72 hours: 228.8 µg/mL
HCT-116; 24 hours
  IC50 24 hours: 24.8 µg/mL
HCT-116; 48 hours
  IC50 48 hours: 77.3 µg/mL
HCT-116; 72 hours
  IC50 72 hours: 95.2 µg/mL
PANC-1; 24 hours
  IC50 24 hours: 91.4 µg/mL
PANC-1; 48 hours
  IC50 48 hours: 337.1 µg/mL
PANC-1; 72 hours
  IC50 72 hours: 353.2 µg/mL
PC-3; 24 hours
  IC50 24 hours: 57.2 µg/mL
PC-3; 48 hours
  IC50 48 hours: 64.2 µg/mL
PC-3; 72 hours
  IC50 72 hours: 155.7 µg/mL
